# Results published in patent US7030099B2, “Tumor specific promoters of the midkine gene that allow for selective expression in P53-inactivated cells” (Research Corporation Technologies, Inc., priority 2000, dated 2006).
# Experiments:
# [1] = as currently used for treatment of cytomegalovirus infections; cited from earlier work
# lung cancer cells QG-56 = assay: In vitro sensitivity to GCV of MK0.6-TK-introduced cells; assay type: cell-based, human
# Description: (§1) (2) Then, the tumor-specificity of this MK0.6 promoter was examined using the human tumor cells and normal fibroblasts. As described above, MK0.6-TK was introduced into various types of cells using lipofectin, and they were cultured in the presence of 400 μg/ml of G418 for ten days to obtain cells in which the MK0.6-TK gene was expressed. Thus, these gene-introduced cells were plated at 500 cells/well of 96-well culture plates, and were cultured in the presence of various concentrations of GCV for seven days. The survival rate of the cells was examined using the Cell Counting Kit-8. The results obtained are shown in FIG. 3A, FIG. 3B and FIG. 3C.
# [2] = test system: lung cancer cells QG-56, PC-1, human breast cancer cells BT549; assay: Luciferase assay of midkine promoter activity in tumor cells; assay type: cell-based; settings: FIG. 6
# Excerpt: Using the PCR method based on the information of the midkine genomic DNA, a DNA fragment that corresponds to a 335 bp region (MK335bp) from −285 to +50 and that has the base sequence set forth in SEQ ID NO: 4 was synthesized, and after confirming the sequences, it was inserted into pCR2.1 (manufactured by Invitrogen). After excising MK335bp from this DNA, it was ligated to pGL2-Basic (manufactured by Promega) to construct a plasmid for detecting promoter activity. Furthermore, using pGL2-Control (manufactured by Promega) containing the promoter of SV40 virus and pGL2-Basic containing a similarly constructed 609 bp midkine promoter (MK0.6), promoter activity was examined by the following method.
# The lung cancer cells QG-56, PC-1, and human breast cancer cells BT549 that were cultured in DMEM (Sigma) supplemented with 10% bovine fetal serum, were transfected. After 10 μg each of these plasmids and lipofectin (manufactured by Life Technologies) were mixed, it was allowed to stand at room temperature for 30 minutes to form a complex. […] In order to normalize the efficiency of gene introduction, 1 μg of pRL-TK plasmid (manufactured by Promega) was included in each gene introduction group, and the Renilla luciferase activity by the TK promoter was determined, based on which the Firefly luciferase activity was corrected.
# normal MRC-5 cells = assay: In vitro sensitivity to GCV of promoter-TK gene-introduced cells (Cell Counting Kit-8 survival); assay type: cell-based, human; settings: HSV-TK gene controlled by the promoter, GCV seven days, FIG. 2A
# Description: (§2) (1) In order to examine cytotoxic effects by the transcription activity of the promoter obtained from the midkine gene, herpes simplex virus thymidine kinase (HSV-TK), a suicide gene, was ligated downstream of MK0.6 and MK2.3, and the plasmid was introduced in cells, and a prodrug gancyclovir (GCV) was added into the culture medium of the gene-introduced cells. The method of determining the cytotoxic effect by this system is as described in Moolten, FL. Cancer Gene Ther., 1:279–287, 1994.
# (§3) First, the CMV promoter of pcDNA3 (manufactured by Invitrogen) was removed using NruI and HindIII sites, to which MK2.3 or Mk0.6 was inserted, and then using the EcoRV site, the HSV-TK gene excised from pMK (Brinster, R L et al., Cell, 27:223–231, 1981) with BglI and EcoRI was inserted. Each of the plasmids thus obtained (MK2.3-TK and MK0.6-TK) was introduced, as described above, using lipofectin into MRC-5 which are normal cells, or MRC-5 cells that had been immortalized by inactivating the functions of the p53 tumor suppressor gene. In order to utilize the expression of the Neo gene contained in pcDNA3 as drug resistant markers, the cells were cultured with 400 μg/ml of G418 (manufactured by Life Technologies) for ten days to establish the cells that expressed MK2.3-TK and MK0.6-TK, respectively. These cells were then plated at 500 cells/well of 96-well culture plates, and were cultured in the presence of various concentrations of GCV (manufactured by F. Hoffman-La Roche) for seven days. The survival rate of the cells was examined using the Cell Counting Kit-8 (manufactured by Dojin Kagaku). The survival of the cells at a GCV concentration of 0 μg/ml was set as 100%, and the survival for each experiment group is shown in terms of percentage in FIG. 2A and FIG. 2B.
# [3] = test system: immortalized MRC-5 cells (p53 functions inactivated); assay: as above; assay type: cell-based, human; settings: HSV-TK gene powered by the promoter, GCV seven days, FIG. 2B
# Description: as §2, §3
# [4] = test system: lung cancer cells QG-56, neuroblastoma NGP; assay: CAT assay of promoter transcription activity, tumor cells; assay type: cell-based, human
# Description: (§4) Using the above plasmid, or a plasmid pCAT-Control (manufactured by Promega) having the promoter of SV40 virus, and a plasmid pCAT-Basic (manufactured by Promega) containing no promoters, gene introduction was performed on the lung cancer cells QG-56, the neuroblastoma NGP, and the normal human fibroblasts MRC-5 that were being cultured in a DMEM (Sigma) supplemented with 10% bovine fetal serum. After 10 μg each of these plasmids and lipofectin (Life Technologies) were mixed, it was allowed to stand at room temperature for 30 minutes to form a complex. Then the complex, after removing the bovine fetal serum therefrom, was contacted with the cells. Eight hours later culture medium supplemented with bovine fetal serum was added, cultured for 40 hours, and then the gene-introduced cells were disrupted by ultrasonication. After centrifugation, the supernatants were used to examine their transcription activities with the known CAT assay method (Gorman, C M et al., Mol. Cell. Biol., 2:1044–1051, 1982) using [^14C]-chloramphenicol and acetyl CoA. At this time, in order to normalize the efficiency of gene introduction, 1 μg of the β-galactosidase gene (pCH110, manufactured by Amersham) was introduced at the same time, and the β-galactosidase activity (Heromel, P. et al., Cell, 39:653–662, 1984) was determined.
# [5] = test system: normal human fibroblasts MRC-5; assay: CAT assay of promoter transcription activity, normal cells; assay type: cell-based; settings: FIG. 1
# Description: as §4
# immortalized MRC-5 cells = assay: Luciferase assay of MK0.6 promoter activity under expression of wild-type p53; assay type: cell-based, human; settings: FIG. 5
# Excerpt: In at least about 50% of human solid tumors, the loss of p53 gene functions is observed, and forced expression of-the wild-type p53 gene in tumors arrests tumor growth in some cases. Thus, using the MRC-5 cells that had been immortalized by destroying the functions of the p53 gene, DNA plasmid was introduced in which the luciferase gene, a reporter gene, was ligated downstream of the MK0.6 promoter, and the transcription activity of the MK0.6 promoter under the expression of the wild-type p53 gene was examined.
# For this purpose, the MK0.6-CAT plasmid prepared in Example 1 was cleaved with HindIII, and the MK0.6 kb gene obtained was inserted into the HindIII site of pGL2-Basic (manufactured by Promega). […] After 48 hours-culture, the cells were disrupted using the Dual-Luciferase Reporter Assay System (manufactured by Promega), and the Firefly luciferase activity therein was determined using the reagents in the same kit. In order to normalize the efficiency of transfection, 1 μg of pRL-TK plasmid (manufactured by Promega) was included in each transfection, and the Renilla luciferase activity by the TK promoter was determined, based on which the Firefly luciferase activity was corrected.
# neuroblastoma NGP cells = assay: In vitro sensitivity to GCV of MK0.6-TK-introduced cells; assay type: cell-based, human; settings: MK0.6-TK-introduced NGP; GCV seven days; FIG. 3B
# Description: as §1
# normal fibroblasts HEF = assay: as above; assay type: cell-based, human; settings: MK0.6-TK-introduced HEF; GCV seven days; FIG. 3C
# Description: as §1
molecule,measurement,setting,value
"Nc1nc(O)c2ncn(COC(CO)CO)c2n1 [GCV, gancyclovir, reference compound]",maximum blood concentration of GCV,[1],1 µg/mL
same,concentration at which the cytotoxic effects by GCV was obtained,"lung cancer cells QG-56; MK0.6-TK-introduced tumor cells (QG-56, NGP)",100 ng/mL
"MK335bp: 335 bp midkine region from −285 to +50, base sequence SEQ ID NO: 4 (nucleic acid, listed as Homo sapiens) DNA: ACCACCGCTCGGAAGATGGGGCCGGGAGAGGCCGCCGTCGCAGCGCAGAGGGCACCGGCGGGGAGACGCGAGGACGCGGGGCCGGGAACACGGACGCCGGAGTAGAAGCGCGGGGGGGGCGGGCTGGAGCGGGGGCGGGGACGCCGGGGTCGGGGGCGGTGCGGGTTTGAGGGGAGGGGGCGGGGCGGGTCCTTCCCTGGGGGGGTGGGGAGAGGGGGCGGGGGCCCATGTGACCGGCTCAGACCGGTTCTGGAGACAAAAGGGGCCGCGGCGGCCGGAGCGGGACGGGCCCGGCGCGGGAGGGAGCGAAGCAGCGCGGGCAGCGAGCGAGTGAG",promoter activity compared with MK0.6,[2],almost the same activity as that of MK0.6
"MK0.6: 0.6 kb (609 bp, −559 to +50) of the human midkine genomic gene, base sequence SEQ ID NO: 1 (nucleic acid, listed as Homo sapiens) DNA: GCTTCCCTGCCCACCCGCGGAAACCGCCCCAGGTGGCCGCGCCCCCTCCCCAGCAGCCAGCAGGGCGCCAGGGCTGAGCCGGCCGTGGAGGGGAGCGGGTCCCGGGGGTTATACAGGCGCCGGGCGTCCGCGGCAGGCAAGAGAAGCTGAGGCCTGAGAACGGCCCGGGCCTTGGCGTACGGCAGGGGACGACCTGGGATGGGGGCAGCGGGCGGCGGCGCAGGGAGTGGGCCGGGGCCGGTGTGCGCGGGCGGGACGGGGCCGGGGTCGGGAGACCACCGCTCGGAAGATGGGGCCGGGAGAGGCCGCCGTCGCAGCGCAGAGGGCACCGGCGGGGAGACGCGAGGACGCGGGGCCGGGAACACGGACGCCGGAGTAGAAGCGCGGGGGGGGCGGGCTGGAGCGGGGGCGGGGACGCCGGGGTCGGGGGCGGTGCGGGTTTGAGGGGAGGGGGCGGGGCGGGTCCTTCCCTGGGGGGGTGGGGAGAGGGGGCGGGGGCCCATGTGACCGGCTCAGACCGGTTCTGGAGACAAAAGGGGCCGCGGCGGCCGGAGCGGGACGGGCCCGGCGCGGGAGGGAGCGAAGCAGCGCGGGCAGCGAGCGAGTGAG",sensitivity to GCV compared to that of the parent strain,normal MRC-5 cells,identical with that of the parent strain
same,sensitivity to GCV compared to that of the parent strain,[3],1000 fold
same,tumor-specificity of promoter activity,[4]; tumor cells versus normal cells,specifically strong in tumors
same,transcriptional activity compared with other midkine promoter fragments,"[4]; tumor cells, FIG. 1",more potent in the tumor cells than MK1.0 or MK2.3
same,transcriptional activity compared with promoter of SV40 virus,"[4]; tumor cells, FIG. 1",more potent than the promoter of SV40 virus in the tumor cells
same,transcriptional activity compared with other midkine promoter fragments,[5],rather decreased in the normal cells
same,MK0.6 promoter activity with increasing amounts of CMV-p53 plasmid,immortalized MRC-5 cells; CMV-p53 0–1 μg co-transfected,decreased
same,MK0.6 promoter activity with control CMV-p53R plasmid,immortalized MRC-5 cells; CMV-p53R 0–1 μg co-transfected,no changes
same,sensitivity to GCV compared to parent strain,"lung cancer cells QG-56; MK0.6-TK-introduced QG-56, GCV seven days, FIG. 3A",1000 fold
same,sensitivity to GCV compared to parent strain,neuroblastoma NGP cells,1000 fold
same,sensitivity to GCV compared to parent strain,normal fibroblasts HEF,remained the same
